Assay [1] deals with murine norovirus (MNV) RNA-dependent RNA polymerase (RdRp), native (murine norovirus (MNV)). Nature of the assay: cross-linking; 0.001% glutaraldehyde, room temperature 6 min; 50 mM HEPES pH 7.4, 5 mM MgCl2, 5 mM DTT, 1 μM oligo(A)15, 2 μM RdRp, 6 μM VPg; SDS-PAGE and western blot with anti-RdRp or anti-VPg antisera.
For assay [2] the target is unchanged. The experiment in a line: crystal structure; RdRp incubated with VPg at a molar ratio of 1:2 with UTP or GTP, oligo(A) or oligo(C), 2 mM MnCl2, 2 mM MgCl2; P21, six monomers in the asymmetric unit; 3.1 Å.
For assay [3] the target is unchanged. Nature of the assay: negative-stain electron microscopy; RdRp alone, 1-6 μM protein, 1 h at room temperature, uranyl formate stain; 2D class averages compared with projections of the hexamer model.
Assay [4] has the same target. The experiment in a line: SPR; data not shown; immobilised RdRp; Biacore2000, 1:1 Langmuir kinetics.
Assay [5] has as its target murine norovirus (MNV) RdRp D331A mutant (murine norovirus (MNV)). Nature of the assay: not stated; D331A and L354D RdRp by themselves, in the absence of VPg; told only in the discussion.
The target in assay [6] is murine norovirus (MNV) RdRp L354D mutant (murine norovirus (MNV)). The assay is described as above.
Assay [7] deals with murine norovirus (MNV) RdRp D331A mutant (murine norovirus (MNV)). The experiment in a line: SPR; Biacore2000; RdRp or mutant RdRp immobilised on a CM5 chip (amine coupling, sodium acetate pH 5.0); analyte in 20 mM Tris-HCl pH 8.0, 100 mM NaCl, 5 mM MgCl2; 1:1 Langmuir kinetics.
The target in assay [8] is murine norovirus (MNV) RNA-dependent RNA polymerase (RdRp), native (murine norovirus (MNV)). The assay is described as above.
In assay [9] the target is murine norovirus (MNV) RdRp L354D mutant (murine norovirus (MNV)). Described as above.
Assay [10] concerns the target murine norovirus (MNV) RNA-dependent RNA polymerase (RdRp), native (murine norovirus (MNV)). The assay is described as above. The source holds these as a separate data set.

Values joined by “and” are separate entries in the source; they are usually repeats but may differ in a detail not shown here. Identical values can stand only once.

In general, stoichiometry N refers to the number of molecules, sites or subunits per partner or assembly. What is called Kd is the equilibrium constant for the complex coming apart. High values mean a looser complex, low ones a tighter complex. “murine norovirus (MNV) RNA-dependent RNA polymerase (RdRp), native (enzyme)”: the stoichiometry N is 2 and 3 and 6 in [1]; 6 in assay [2]; 6 in assay [3]. Further, the Kd in assay [4] stood at 2.2 nM.

As to “murine norovirus (MNV) VPg(1-73) (domain or fragment)”, the Kd in assay [4] stood at 17 nM.

Substance “murine norovirus (MNV) RdRp D331A mutant (enzyme)” gave a stoichiometry N in assay [5] of 6.

Turning to “murine norovirus (MNV) RdRp L354D mutant (enzyme)”, the stoichiometry N in assay [6] was determined as 6.

As for “murine norovirus (MNV) VPg(1-124), full length (natural protein)”, the Kd in assay [7] worked out at 23 nM; in assay [8], 8.7 nM; in [9], 210 nM; in assay [10] it was 8.9 nM.
